Data on 14 molecules can be found in patent publication US20140336116A1 (GLYTECH, published 2014).

Test [1] deals with T1, somatostatin receptor SSTR4 (Human, UniProt P31391 1-388). The test is described as follows: cell-based or functional assay.
Test [2] deals with T1, somatostatin receptor SSTR4. Description: cell-based or functional assay. This is another data set of the same source.
Test [3] concerns the target T2, somatostatin receptor SSTR2 (Human, UniProt P30874 1-369). Description: cell-based or functional assay.
The target of test [4] is T3, somatostatin receptor SSTR1 (Human, UniProt P30872 1-391). Description: cell-based or functional assay.
T3 sequence (P30872 whole entry): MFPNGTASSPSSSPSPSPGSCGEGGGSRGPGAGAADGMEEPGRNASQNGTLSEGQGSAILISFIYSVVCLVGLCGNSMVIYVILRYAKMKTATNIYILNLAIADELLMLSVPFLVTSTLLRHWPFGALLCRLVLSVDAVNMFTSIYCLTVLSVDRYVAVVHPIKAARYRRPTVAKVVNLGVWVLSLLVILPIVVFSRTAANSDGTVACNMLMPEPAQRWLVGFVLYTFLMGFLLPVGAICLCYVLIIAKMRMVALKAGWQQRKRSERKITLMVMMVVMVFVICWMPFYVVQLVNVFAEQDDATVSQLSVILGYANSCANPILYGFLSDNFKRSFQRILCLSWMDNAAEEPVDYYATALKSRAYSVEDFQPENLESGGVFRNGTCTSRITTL
The target of test [5] is T1, somatostatin receptor SSTR4. The test is described as follows: cell-based or functional assay. The source holds these as a separate data set.
Test [6] addresses T2, somatostatin receptor SSTR2. Description: radioligand competition.
Test [7] shares this target. Description: cell-based or functional assay. This is another data set of the same source.
The target in test [8] is somatostatin receptor SSTR5 (Human, UniProt P35346 1-364). The test is described as follows: cell-based or functional assay.
Sequence of somatostatin receptor SSTR5 (P35346 whole entry): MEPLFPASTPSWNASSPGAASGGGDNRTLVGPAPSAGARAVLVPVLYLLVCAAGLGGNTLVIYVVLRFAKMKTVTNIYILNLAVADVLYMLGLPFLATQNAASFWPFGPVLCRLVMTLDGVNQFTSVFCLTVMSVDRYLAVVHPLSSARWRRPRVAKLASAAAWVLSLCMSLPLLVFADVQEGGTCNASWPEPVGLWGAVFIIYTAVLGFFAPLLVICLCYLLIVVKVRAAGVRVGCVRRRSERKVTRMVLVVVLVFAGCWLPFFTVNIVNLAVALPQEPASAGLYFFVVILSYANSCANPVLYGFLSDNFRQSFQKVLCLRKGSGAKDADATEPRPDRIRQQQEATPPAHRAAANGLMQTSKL
In test [9] the target is T4, somatostatin receptor SSTR3 (Human, UniProt P32745 1-418). The test is described as follows: cell-based or functional assay.
T4 sequence (P32745 whole entry): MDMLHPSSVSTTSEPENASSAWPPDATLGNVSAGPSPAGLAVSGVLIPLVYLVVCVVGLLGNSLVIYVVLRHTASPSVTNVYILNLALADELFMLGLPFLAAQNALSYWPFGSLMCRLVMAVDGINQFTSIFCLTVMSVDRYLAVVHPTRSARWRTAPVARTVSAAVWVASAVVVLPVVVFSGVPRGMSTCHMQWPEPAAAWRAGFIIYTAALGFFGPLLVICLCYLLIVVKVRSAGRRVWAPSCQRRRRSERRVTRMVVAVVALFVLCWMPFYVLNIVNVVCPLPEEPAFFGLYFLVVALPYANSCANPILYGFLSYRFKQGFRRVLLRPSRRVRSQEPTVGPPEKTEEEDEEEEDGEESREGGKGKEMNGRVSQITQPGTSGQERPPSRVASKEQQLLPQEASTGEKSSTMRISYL
Test [10] deals with T3, somatostatin receptor SSTR1. Description: cell-based or functional assay. This is another data set of the same source.
Test [11] concerns the target T4, somatostatin receptor SSTR3. Description: cell-based or functional assay. The source holds these as a separate data set.

Read-outs that look alike come from different tables or passages of the source. Bridges are numbered along the chain shown (N, C = ends). Where no end group is shown, it is not given here. Side-chain parts run from the residue outwards. disialo(aminoethylamide) = disialo sugar chain with sialic acid carboxy groups modified by aminoethylamino groups; diGlcNAc = diGlcNAc sugar chain; disialo = disialo sugar chain; GlcNAc = N-acetylglucosamine; asialo = not defined here

T1 sequence (P31391 whole entry): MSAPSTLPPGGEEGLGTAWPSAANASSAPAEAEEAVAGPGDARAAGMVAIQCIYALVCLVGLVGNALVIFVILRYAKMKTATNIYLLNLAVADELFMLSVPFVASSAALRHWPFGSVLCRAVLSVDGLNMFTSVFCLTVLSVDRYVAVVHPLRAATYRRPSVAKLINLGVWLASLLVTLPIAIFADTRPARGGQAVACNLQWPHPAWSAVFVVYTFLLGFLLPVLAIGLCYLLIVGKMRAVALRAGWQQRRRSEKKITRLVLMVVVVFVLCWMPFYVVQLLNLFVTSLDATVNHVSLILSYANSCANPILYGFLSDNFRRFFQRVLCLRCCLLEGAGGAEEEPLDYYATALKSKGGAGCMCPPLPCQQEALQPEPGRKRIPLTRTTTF
T2 sequence (P30874 whole entry): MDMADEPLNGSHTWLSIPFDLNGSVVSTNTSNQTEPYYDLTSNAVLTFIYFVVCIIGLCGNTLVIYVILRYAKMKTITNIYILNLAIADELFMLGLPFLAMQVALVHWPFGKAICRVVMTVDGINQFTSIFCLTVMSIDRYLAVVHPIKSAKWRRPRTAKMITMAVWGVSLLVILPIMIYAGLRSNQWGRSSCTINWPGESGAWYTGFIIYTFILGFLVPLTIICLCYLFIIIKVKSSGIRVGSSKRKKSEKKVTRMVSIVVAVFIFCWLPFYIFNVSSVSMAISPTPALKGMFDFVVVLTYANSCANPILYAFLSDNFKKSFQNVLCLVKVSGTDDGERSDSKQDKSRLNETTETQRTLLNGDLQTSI

As to CAGCKNFFWKTFTSC (disialo sugar chain on the Cys added before Ala15; disulfide Cys17-Cys28) [C(disialo)-SRIF14], the “IC50, cAMP production suppressing action” value in [1] was found to be 0.1 nM.

B1: 3C(disialo)-R-K-SRIF14 (peptide)
peptide: CCCRKAGCKNFFWKTFTSC
modifications: disialo sugar chain on each of the three N-terminal Cys of the added Cys-Cys-Cys-Arg-Lys-; disulfide Cys17-Cys28
B1 showed an IC50, cAMP production suppressing action in test [2] of 1.6 nM.
As to C(GlcNAc)ANSNPAMAPRERKAGCKNFFWKTFTSC (disulfide 17-28) [S1C(GlcNAc)-SRIF28], the “IC50, cAMP production suppressing action” value in test [3] turned out to be 0.04 nM.
As for C([Asn-disialo])ANSNPAMAPRERKAGCKNFFWKTFTSC (disulfide 17-28) [S1C(Asn(disialo))-SRIF28], in test [4], the “IC50, cAMP production suppressing action” value was determined as 2 nM.

B2: S1-3C(asialo)-SRIF28 (peptide)
peptide: CCCANSNPAMAPRERKAGCKNFFWKTFTSC
modifications: Ser1 replaced by three consecutive Cys each with an asialo sugar chain; disulfide Cys17-Cys28
For B2, in test [1], the “IC50, cAMP production suppressing action” value came out at 0.1 nM.
C(disialo sugar chain)RKAGCKNFFWKTFTSC (disulfide 6-17) [C(disialo)-R-K-SRIF14]: the “IC50, cAMP production suppressing action” value in [5] turned out to be 0.05 nM.
As for C(diGlcNAc)ANSNPAMAPRERKAGCKNFFWKTFTSC (disulfide 17-28) [S1C(diGlcNAc)-SRIF28], the “IC50, cAMP production suppressing action” value in test [1] stood at 0.05 nM.
Consider C(asialo)ANSNPAMAPRERKAGCKNFFWKTFTSC (disulfide 17-28; reading uncertain) [S1C(asialo)-SRIF28], for which the IC50 in test [6] was determined as 0.2 nM.
For the molecule C(disialo)ANSNPAMAPRERKAGCKNFFWKTFTSC (disulfide 17-28) [S1C(disialo)-SRIF28], the figures for the “IC50, cAMP production suppressing action” value in test [7] and in test [5] were 0.075 nM and 0.065 nM, respectively. Besides, in test [6], the Ki is 0.269 nM.
As for C(disialo)ANSC(disialo)PAMAPRERKAGCKNFFWKTFTSC (disulfide 17-28) [S1C(disialo)•N5C(disialo)-SRIF28], in [8], the “IC50, cAMP production suppressing action” value amounted to 0.09 nM.
Regarding C(disialo)ANSNPAMAPRERKAGCKC(GlcNAc)FFWKTFTSC (disulfide 17-28) [S1C(disialo)•N19C(GlcNAc)-SRIF28], in test [3], the “IC50, cAMP production suppressing action” value was 0.08 nM.
C(disialo sugar chain)KAGCKNFFWKTFTSC (disulfide 5-16) [C(disialo)-K-SRIF14]: in test [9], the “IC50, cAMP production suppressing action” value worked out at 0.1 nM.
As to C(trisialo sugar chain)ANSNPAMAPRERKAGCKNFFWKTFTSC (disulfide 17-28) [S1C(trisialo)-SRIF28], in test [8], the “IC50, cAMP production suppressing action” value was 0.09 nM.
As to C(disialo(aminoethylamide))ANSNPAMAPRERKAGCKNFFWKTFTSC (disulfide 17-28) [S1C(disialo(aminoethylamide))-SRIF28], the “IC50, cAMP production suppressing action” value in test [10] worked out at 1 nM; in test [7], 0.1 nM; in test [11], 0.3 nM.
